Measured values: patent US20250188151A1, “C-JUN ANTAGONIST PEPTIDES” (The University of Bath, priority 2022, published 2025)

How the values were obtained:
[1] = target: T1, cJun bZIP (human, UniProt P05412 252-308, limits assumed); test: ITC (PEAQ-ITC), peptide injected into cJun, one site model
T1 construct: Purified from a His-SUMO fusion with the tag cleaved off; also called c-Jun bZIP domain; 60 amino acid c-Jun bZIP construct
T1 chain: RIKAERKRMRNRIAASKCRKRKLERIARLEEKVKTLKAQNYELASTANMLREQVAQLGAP

[2] = target: T1, cJun bZIP
[3] = target: T1, cJun bZIP; test: ITC
[4] = target: T1, cJun bZIP; test: cell-based or functional assay
[5] = target: T1, cJun bZIP; test: ITC, antagonist injected into cJun, one site model

B1: HingeW (peptide)
peptide: MASLEQRAEELARENEELEKEAEELVVEEDVLEEEIEQLEERNYALRKEIEDLQKQLEKLGAPHHHHHH
notes: Recombinant, capped (MAS at the N-terminus, GAP at the C-terminus) and C-terminally 6xHis-tagged, 69 amino acids; also called peptide 1
-TΔS [1]: 73.4 kJ/mol
Stoichiometry, n [1]: 0.93
ΔG [1]: -56.3 kJ/mol
ΔH [1]: -130 kJ/mol
ΔTm from component average (CD) [2]: ~40 ° C.
fold increase in binding affinity against A-FosW [3]: 6 fold
IC50 CD [4]: 13.4 µM
Kd [5]: 14.4 nM
TΔS (ITC) [5]: -39.2 kJ/mol
ΔG (ITC) [5]: -46.2 kJ/mol
ΔH (ITC) [5]: -85.4 kJ/mol
